From patent US20230348616A1 (MIE UNIVERSITY, published 2023)
Like-named read-outs stand apart in the source and are kept apart here.

How the values were obtained:
[1] = biological target: T1, HLA-A2 / homologous peptide DOLPP1 complex on T2 cells (human); assay: flow cytometry, peptide-pulsed T2 cells
T1 construct: whole, on cells; also called T2 cells supplemented with homologous peptide DOLPP1

[2] = biological target: T2, HLA-A2 / homologous peptide IL20RB complex on T2 cells (human); assay: flow cytometry, peptide-pulsed T2 cells
T2 construct: whole, on cells; also called T2 cells supplemented with homologous peptide IL20RB

[3] = biological target: T3, HLA-A2 / homologous peptide PRKD2 complex on T2 cells (human); assay: flow cytometry, peptide-pulsed T2 cells
T3 construct: whole, on cells; also called T2 cells supplemented with homologous peptide PRKD2

[4] = biological target: T4, HLA-A2 / homologous peptide CD163 complex on T2 cells (human); assay: flow cytometry, peptide-pulsed T2 cells
T4 construct: whole, on cells; also called T2 cells supplemented with homologous peptide CD163

[5] = biological target: T5, HLA-A2 / homologous peptide P2RY8 complex on T2 cells (human); assay: flow cytometry, peptide-pulsed T2 cells
T5 construct: whole, on cells; also called T2 cells supplemented with homologous peptide P2RY8

[6] = biological target: T6, gp100 (human); assay: flow cytometry on peptide-pulsed T2 cells, scFv 100 nM
T6 construct: cell surface;cell surface complex; also called HLA-A2 / gp100 peptide complex on T2 cells
Protocol: (§1) The resultant was washed two times in the AIM-V medium containing 20% FBS, the concentration thereof was adjusted to an adequate level with PBS containing 5% FBS, the LIVE/DEAD Fixable Dead Cell Stain Kit (Thermo Fisher Scientific) was added thereto, and the resultant was allowed to stand at 4° C. for 30 minutes. The cells were washed 2 times in PBS containing 5% FBS, the washed cells were divided into two groups, the cells in PBS containing 5% FBS were seeded on a 96-well U-bottom microplate at 10⁵ cells/well, and the plate was subjected to centrifugation, followed by removal of the supernatant. Anti-HLA/NY-ESO scFv diluted to 100 nM with PBS containing 5% FBS was added at 25 μl/well to one of the divided cells, and the resultant was allowed to stand at 4° C. for 30 minutes. The cells were washed 2 times in PBS containing 5% FBS, Penta-His Alexa Fluor488 (QIAGEN) diluted in PBS containing 5% FBS was added at 25 μl/well, and the resultant was allowed to stand at 4° C. for 30 minutes. The cells were washed 2 times in PBS containing 5% FBS, Anti-mouse-IgG Alexa Fluor488 (Thermo Fisher Scientific) diluted in PBS containing 5% FBS was added at 25 μl/well, and the resultant was allowed to stand at 4° C. for 30 minutes. The cells were washed 2 times in PBS containing 5% FBS, immobilized with Mildform 10 N (FUJIFILM Wako Pure Chemical Corporation) overnight, and resuspended in PBS containing 5% FBS. […] The cells were washed 2 times in PBS containing 5% FBS, immobilized with Mildform 10 N (FUJIFILM Wako Pure Chemical Corporation) overnight, and resuspended in PBS containing 5% FBS. The cell suspensions were subjected to detection using a flow cytometer (CantoII, Becton Dickinson). […] The standardized gMFI indicating the binding affinity of each scFv standardized with the amount of the HLA/peptide complex on the T2 cells was determined in accordance with the following equation.

[7] = biological target: T7, HLA-A2/NY-ESO peptide complex presented on cells (human); assay: as above
T7 construct: whole, on cells; also called HLA/NY-ESO; T2 cells supplemented with the NY-ESO peptide
Protocol: as §1

[8] = biological target: T6, gp100; assay: as above; remark: listed apart in the source
Protocol: (§2) The cells were washed 2 times in PBS containing 5% FBS, immobilized with Mildform 10 N (FUJIFILM Wako Pure Chemical Corporation) overnight, and resuspended in PBS containing 5% FBS. The cell suspensions were subjected to detection using a flow cytometer (CantoII, Becton Dickinson). […] The standardized gMFI indicating the binding affinity of each scFv standardized with the amount of the HLA/peptide complex on the T2 cells was determined in accordance with the following equation.
(§3) The 9-mer peptide shown in FIG. 2A was selected as a homologous peptide for evaluation of binding specificity of anti-HLA/NY-ESO scFv. […] The standardized gMFI indicating the binding affinity of each scFv standardized with the amount of the HLA/peptide complex on the T2 cells was determined in accordance with the following equation.

[9] = biological target: T7, HLA-A2/NY-ESO peptide complex presented …; assay: as above; remark: listed apart in the source
Protocol: as §2, §3

[10] = biological target: T1, HLA-A2 / homologous peptide DOLPP1 …; assay: as above
Protocol: as §2, §3

[11] = biological target: T2, HLA-A2 / homologous peptide IL20RB …; assay: as above
Protocol: as §2, §3

[12] = biological target: T3, HLA-A2 / homologous peptide PRKD2 …; assay: as above
Protocol: as §2, §3

[13] = biological target: T4, HLA-A2 / homologous peptide CD163 …; assay: as above
Protocol: as §2, §3

[14] = biological target: T5, HLA-A2 / homologous peptide P2RY8 …; assay: as above
Protocol: as §2, §3

[15] = biological target: T8, HLA-A*0201/β2-microglobulin/NY-ESO peptide complex (human, biotinylated with E. coli biotin ligase at the added recognition sequence (biotinylated form used in the ELISA)); assay: SPR (Biacore T200), scFv captured by anti-His antibody, HLA/NY-ESO as analyte, single cycle kinetics
T8 construct: also called HLA/NY-ESO; HLA-A2/NY-ESO
Protocol: With the use of Biacore T200, anti-HLA/NY-ESO scFv was captured as a ligand by the immobilized anti-His antibody, and the antigen was assayed as an analyte. As the antigen, HLA/NY-ESO prepared in 1)-1 was used. The anti-His antibody (His Capture kit, GE Healthcare) was immobilized on Sensor Chip CM5 (GE Healthcare) in accordance with the instructions of the kit. The anti-HLA/NY-ESO scFv constructs diluted to 0.5 μg/ml in HBS-EP+ (GE Healthcare) to be evaluated were brought into contact therewith at 10 μl/min for 60 seconds for immobilization. Thereafter, the samples were added to the HLA/NY-ESO analytes diluted to various levels with HBS-EP+ at a flow rate of 30 μl/min for 120 seconds and dissociation was assayed for 600 seconds.

[16] = biological target: T8, HLA-A*0201/β2-microglobulin/NY-ESO …; assay: ELISA, biotinylated HLA/NY-ESO on NeutrAvidin, scFv from E. coli culture, anti-FLAG-HRP
Protocol: The plate was washed 3 times with ELISA buffer, blocked with Blocker Casein (Thermo Fisher Scientific), and then washed 3 times with ELISA buffer. Thereafter, a culture solution of scFv-expressing E. coli was added, and the reaction was allowed to proceed at room temperature for 2 hours. After the resultant was washed 3 times with ELISA buffer, 50 μl of the horseradish peroxidase (HRP)-labeled anti-FLAG antibody (Sigma-Aldrich) diluted to 5,000-fold with ELISA buffer was added, and the reaction was allowed to proceed at room temperature for 1 hour.

Row | Binder | binding result [1] | binding result [2] | binding result [3] | binding result [4] | binding result [5] | standardized gMFI [6] | standardized gMFI [7] | standardized gMFI [8] | standardized gMFI [9] | standardized gMFI [10] | standardized gMFI [11] | standardized gMFI [12] | standardized gMFI [13] | standardized gMFI [14] | Kd [15] [nM] | binding result [16]
1 | NYA-2060 (scFv, also called NYA-2060 tag adduct) scFv: GEVQLVESGGGLVQPGGSLRLSCAASGFSIRSYDIHWVRQAPGKGLEWVATISYDGSQKYYADSVKGRFTISRDESKNTLYLQMNSLRAEDTAVYHCARGSSGHYEAFDIWGQGTLVTVSSGGGGSGGGGSGGGGSQSVLTQPPSVSAAPGQKVTISCSGSSSNIGNWYVSWYQQLPGTAPKLLIYDNNKRPSGIPDRFSGSKSGTSATLGITGLQTGDEADYYCGTWDSSLSAPWVFGGGTKVTVLGAAAGAGGDYKDDDDKGAAAHHHHHH | no binding (tested: 100 nM) | no binding (tested: 100 nM) | no binding (tested: 100 nM) | no binding (tested: 100 nM) | no binding (tested: 100 nM) | 0.41 | 8.78 | 0.32 | 11.2 | 0.42 | 0.45 | 0.33 | 0.47 | 0.62 | 1.1 | 
2 | NYA-2047 (scFv) scFv: GQVQLVESGGGVVQPGRSLRLSCAASGFSIRSYDMHWVRQAPGKGLEWVATISYDGSQKYYADSVKGRFTISRDNSKNTLYLQMSSLRAEDTAVYHCARGSSGHYEAFDIWGQGTLVTVSSGGGGSGGGGSGGGGSQSVLTQPPSVSAAPGQKVTISCSGSSSNIGNWYVSWYQQLPGTAPKLLIYDNNKRPSGIPDRFSGSKSGTSATLGITGLQTGDEADYYCGTWDSSLSAPWVFGGGTKVTVLGAAAGAGGDYKDDDDKGAAAHHHHHH | no binding (tested: 100 nM) | no binding (tested: 100 nM) | no binding (tested: 100 nM) | no binding (tested: 100 nM) | no binding (tested: 100 nM) | 0.39 | 7.99 | 0.3 | 10.2 | 0.4 | 0.43 | 0.35 | 0.47 | 0.72 | 5.3 | 
3 | NYA-2045 (scFv, also called NYA-2045 tag adduct) scFv: GEVQLVESGGGLVQPGGSLRLSCAASGFSIRSYDIHWVRLAPGKGLEWVATISYDGSQKYYADSVKGRFTISRDESKNTLYLQMNSLRAEDTAVYHCARGSSGHYEAFDIWGQGTLVTVSSGGGGSGGGGSGGGGSQSVLTQPPSASGTPGQRVTISCSGSSSNIGNWYVSWYQQLPGTAPKLLIYDNNKRPSGVPDRFSGSKSGTSASLAISGLQSEDEADYYCGTWDSSLSAPWVFGGGTKLTVLGAAAGAGGDYKDDDDKGAAAHHHHHH | no binding (tested: 100 nM) | no binding (tested: 100 nM) | no binding (tested: 100 nM) | no binding (tested: 100 nM) | no binding (tested: 100 nM) | 0.39 | 9.03 | 0.3 | 13.8 | 0.43 | 0.47 | 0.34 | 0.48 | 0.58 | 0.8 | 
4 | NYA-2044 (scFv, also called NYA-2044 tag adduct) scFv: GEVQLVESGGGLVQPGGSLRLSCAASGFSIRSYDIHWVRLAPGKGLEWVATISYDGSQKYYADSVKGRFTISRDESKNTLYLQMNSLRAEDTAVYHCARGSSGHYEAFDIWGQGTLVTVSSGGGGSGGGGSGGGGSQSVLTQPPSVSAAPGQKVTISCSGSSSNIGNWYVSWYQQLPGTAPKLLIYDNNKRPSGIPDRFSGSKSGTSATLGITGLQTGDEADYYCGTWDSSLSAPWVFGGGTKVTVLGAAAGAGGDYKDDDDKGAAAHHHHHH | no binding (tested: 100 nM) | no binding (tested: 100 nM) | no binding (tested: 100 nM) | no binding (tested: 100 nM) | no binding (tested: 100 nM) | 0.39 | 12.9 | 0.32 | 14.3 | 0.38 | 0.43 | 0.33 | 0.47 | 0.72 | 0.8 | 
5 | NYA-2061 (scFv, also called NYA-2061 tag adduct) scFv: GEVQLVESGGGLVQPGGSLRLSCAASGFSIRSYDIHWVRQAPGKGLEWVATISYDGSQKYYADSVKGRFTISRDESKNTLYLQMNSLRAEDTAVYHCARGSSGHYEAFDIWGQGTLVTVSSGGGGSGGGGSGGGGSQSVLTQPPSASGTPGQRVTISCSGSSSNIGNWYVSWYQQLPGTAPKLLIYDNNKRPSGVPDRFSGSKSGTSASLAISGLQSEDEADYYCGTWDSSLSAPWVFGGGTKLTVLGAAAGAGGDYKDDDDKGAAAHHHHHH | no binding (tested: 100 nM) | no binding (tested: 100 nM) | no binding (tested: 100 nM) | no binding (tested: 100 nM) | no binding (tested: 100 nM) | 0.4 | 8.62 | 0.32 | 10.4 | 0.4 | 0.46 | 0.33 | 0.48 | 0.57 | 1.5 | 
6 | NY-R119 (scFv, Expressed in E. coli, culture solution used in the ELISA; also called ELISA-positive clone NY-R119; not shown: FLAG tag and His tag at the carboxyl terminus from the E. coli expression vector) scFv: EVQLVESGGGVVQPGRSLTPSCSASGFSIRSYDIHWVRQAPGKGLEWVATISYDGSQKYFADSVKGRFTIFRDESENMVYLQMSGLRVEDTAVYHCARGSSGHYEAFDIWGQGTMVTVSSGGGGSGGGGSGGGGSQSVLTQPPSVSAAPGQKVTISCSGSSSNIGNNYVSWYQQLPGTAPKLLIYDNNKRPSGIPDRFSGSKSGTSATLGITGLQTGDEADYYCGTWDSSLSAPWVFGGGTKVTVL |  |  |  |  |  |  |  |  |  |  |  |  |  |  |  | binds
7 | NYA-2048 (scFv, also called NYA-2048 tag adduct) scFv: GQVQLVESGGGVVQPGRSLRLSCAASGFSIRSYDMHWVRQAPGKGLEWVATISYDGSQKYYADSVKGRFTISRDNSKNTLYLQMSSLRAEDTAVYHCARGSSGHYEAFDIWGQGTLVTVSSGGGGSGGGGSGGGGSQSVLTQPPSASGTPGQRVTISCSGSSSNIGNWYVSWYQQLPGTAPKLLIYDNNKRPSGVPDRFSGSKSGTSASLAISGLQSEDEADYYCGTWDSSLSAPWVFGGGTKLTVLGAAAGAGGDYKDDDDKGAAAHHHHHH | no binding (tested: 100 nM) | no binding (tested: 100 nM) | no binding (tested: 100 nM) | no binding (tested: 100 nM) | no binding (tested: 100 nM) | 0.41 | 6.58 | 0.34 | 8.82 | 0.44 | 0.48 | 0.35 | 0.52 | 0.69 | 6.3 | 
